The DeepSol protein solubility set

Test: soluble on expression in E. coli; label from the status in PepcDB or PDB records

Sequence	soluble on expression in E. coli
MGSDKIHHHHHHATRSGKTPVSVELEIGGLPGDESVDDAIDPDLENPNTSFDLLFIPKEFTFETQAISGDLTAVPIRPSEGNTHTMRHFGMGDVRGALTGWHVTAEIPHMRNEAHSLLGIITFQLTGSYARYDKTLRRFFMTNTMYGLDFSEDPAAPDFPTNPIIIGNGATLMSNAGDRKGQGMWSGRMTDISLAIQTPVSQLFPGAYTGSIIWNLISGPV	not soluble
MGSDKIHHHHHHAVSETISETAWCLDGFERPTGVNPVIKPLPTKFYCPMREDSVAWEESDTFNPAATIYDGKIVVMYRAEDNSAQGIGSRTSRLGYATSTDGIHFERDTKPAFYPAKDNQAENECPGGTEDPRIAMTEDGTYVLLYTQWNRKVPRLAVATSKDLKHWTKFGPAFEKAYNGKFKDEATKSASLVTTLKGDKQVIAKVNGKYFMYWGEKNVYAATSDNLIDWDPLLDENGELLKLFSPRSGYFDSQLTECGPPAILTKDGIVLLYNGKNEPGEKGDTAYPANSYCAGQALFDVNNPTKLIGRLDKPFLQPTDDFEKSGQYPAGTVFVEGLVYYRNKWYLYYGCADSFVAVAVSDKQLNF	not soluble
MGSDKIHHHHHHCDSGSDAVSYGVGTLSLGLSANPSFSTKTRSVNEAEYKKADNYQVTVKDADGASLYNGLYKDMPLSIDLTAGKGYTVKAFYGENVNAGFDKLYVEGSQEFTVSEGEQKNVILYCKPANVKVSVVYTEDFLKYYSDCTVSLSTSHLTAPFEVNMKKDSGKDAYLKANADGEKVSITVGGFRDKEGNEVVMEALVAEKKVAPKTHLTITVDPEVITISTGTASLDVTVDTGTEDKDVNIEIPEEYWPGNASK	not soluble
MGSDKIHHHHHHCQNAAATDTNQSVSAKLQQQALSSSLAYDIVESLTVEVGPRLAGSDKDLVAVEWAEKKLGSLGFDKVYKEAVQVPVWQRGEAKANIVSPYAQPLVITALGGSVGTPEEGISAPIVRFETLDELKQADPSLVAGKIVFIDHITPRFKTGKGYGMTVGGRSRGAIAAAEKGALAIVIRSIGTDHDRMAHTGMMRYQEGVDKIPAAAMSNPDADLVTLMLKRDPNVVLHLEMSPKNLGYATSYNVIAEVTGSSKPDEIVLIGAHLDSWDEGTGAIDDGAGVAIVTAAGHYISQLRVKPARTVRVVLYAAEELGLIGGKSYAKDHQAELAQHYIAAESD	not soluble
MGSDKIHHHHHHDAVRTYYAKAISANEKTNSVCMFVKEAEKWAMDWDEKAKDPQFQKPPLFGLPMSLKECVPLEGYDQTRGFVQDTFRPTETDGVLVQQLKKLGAIPYVQTNVPQSLLSYNCSNPVYGTTNHPMDKTRTSGGSSGGESALISADGSLLGIGGDVGGSIRIPCAYTGTTGIKPSHLRFSHRGVCGSVPGRPLINSNDGPMSTRVETNVDFLRTVWADTWITEQDPYVPPVTWNEEAYKSDKKLKIGYYVDDGWFTPTPVCQRAVMEAKQILEDSGHTLVPFRPPRVPEVLRMFLRAVCVDAGTFLSKKLMNDIIDPLLYTQVVLWMVPVPIQRFLSSIIKVFFPRLGNLMDAMTLSTVELRNTYADIEAYRSEMAGLMVDQKIDALLCPVTVSPALPHVSPSKLFAGTSYTGIFNLLDYAAGSVNVTHVTKQDELDLEDYEESDPWYALAKKGSRGTIGFPIGVQVATPPYKEETCLRIMREIERGVTGK	not soluble
MGSDKIHHHHHHDEEPSDKGSTSPQEPVYTTFTDAGEVVVPGVLPANFTPRSVRVKGDTLFVANTNAADRSVLLLNLTTGELIGRIDSWVRKGVKETFNAEIGDMAVSDRYIFVGMYNSRINIFDRRTLQFVNAIGRSDGKWGDDIYSMTHCYGLRECGERLMVRDKNTIRGYWIYEAVTEPAFRVPWIGKVKVPEGVGYDYQARIHGMAEYDGRMYLTDWYNKSVQVFTPSKMEIVFGEETHITSDAVFKYDDIQPLGLLAYGGELLMSVQKSGKIQRYDPETGDLLGVLAEFPGKEIGRMEIARGMLYYIDLKAGKLMKAKGE	not soluble
MGSDKIHHHHHHDFEELNTNPFEMTDEMGIRDGVAVGGAVMAMQRAVITVGTQADDTEAINQYQVAYNLSADSWSGFFGQNNNWYSGSNNTTYYLQDNWVAATYTNSYTTLLSSWKKIKQESEKNETPEIFALAQILKISAWHKTLESFGPIPYTHAGEPALVIPFDSEQVAFNAMFADLTAAIEALTVRAEQGATIVADYDAVYAGDTRKWVKYANSLMLRLAMRISYADETTAQKYARQALNHPFGVMTSKSDEAQMSTGAGMVFRNNIDWLANQYNECRMGSSMFSYLLGYQDPRLSAYFEASPSAYAVAAFDGKNYQAVPPGNANQQNTIYTDFSKPNITSNTPTYWMRASEVYFLRAEAALRWGSEFGDAEALYEQGVATSFDENGISSSVDDYLAFGLTPIAHNMRASYYSYNAAAPTTATPAFSGGTEQKLEKIMIQKWIALYPNGHEAWTEWRRTGYPKLNQVQTNRGQGVTREGGIRRMVYPVSFYQSAEDRANYEEALKLLGGLDKDKATTQLWWDCKNKIY	not soluble
MGSDKIHHHHHHDPVSDITDLNYWKTPEQFDSFVFGLHSRFRSHSWNMFLLGEARSDVFGGIPFGGEATQGMERFPYNTLNAENPGISGFGDLYQNINQMNLFISRTLHTDVLTESARNYYLGQVYGLRAYYMYQLYRSWGDVVFTEEPSLGFEVGKLAKAATPAAEIFEQVKKDIESSLSYFGSDYTIKEKKSLWSKAATLMLKADVYLWSAHRDGGEGDARTAKNALVDIQNNISRSNLDLMDTYQGVFAYDNKGNKEIIFTIHNELFEYNLWNGNNDLFPQADYLGKFYNADGTLINTSVENNFGIMRLMVKLENFKKFLPGDTRRDVTLKDVYNKVENGKLELVGVYPHKYWGVMNGSTRVRCDDYPIYRYSDLLLMLAEAKVLLGEDPATEINRVRRRAFGDAYDASTVGFPNQEVDKRPADAVLQERLFEFMLEGKRWYDLRRFGDSYVLDYTPAEPARLLWPINQGALTNNPLLKQTVGY	not soluble
MGSDKIHHHHHHEIMTRENNDQETLKLIQENKLQAEGNIFANVSALKDQNKRFQDECHSEKKQFGIKVEETTAQNNDEVLKESAQTNHIKLGNQQNKLTHESRIMALKEGNTVTKIHVGQAQEKDRKETNFIAAVNRMIQAGRDLPETVDSLEGHTLKLRYGSDASALESDIGLCEIIVSSINRKISKLQDSCIDLSNYAIADHRMVQEMQKNALGINESVRRIQSHLTQFRVSLSDNPITNSMELYKKVQTESHSLSTKINSMPVVTETNHAVAYLRKQRETLALNLPTVA	not soluble
MGSDKIHHHHHHEKAVTHSESKEFKPETVKIGEDGELNIVPLYAPYQTYLKASLKADTSETDSKNYAEYVLRYIDKIGEKENFDPTTLETFFMLKATAYEQDMLNQTNELMKQHDEIKDIITKNYSASYEALPKKKATIFIAPSNLEFWSMTDPLAGVSGAAFQDSIIIQLNPNFDKEVLAYTIAHEYHHLVLNDTPELSRIDTSLDSVIFEGKADAFADQIVTDVSPPWNIPMDDTTKKHVARLIGNGEADYQEITMGNTEKDIPLWSRYSLGRDILTHHLKANPDLSIKTWTYEENHAILNGYKYQKLLE	not soluble
MGSDKIHHHHHHENLYFQGMNIETLMIKNPPILSKEDRLGSAFKKINEGGIGRIIVANEKIEGLLTTRDLLSTVESYCKDSCSQGDLYHISTTPIIDYMTPNPVTVYNTSDEFTAINIMVTRNFGSLPVVDINDKPVGIVTEREFLLLYKDLDEIFPVKVFMSTKVQTIYKEVRLDQAVKLMLRRGFRRLPVIDDDNKVVGIVTVVNAIKQLAKAVDKLDPDYFYGKVVKDVMVTNLVTIDELASVNRAAAEMIVKRIGSLLILNKDNTIRGIITERDLLIALHHILVMEKFKEKL	soluble
MGSDKIHHHHHHETTSTQTVDEQAVFNDTQSAMLAVNGLHKLMWTGDLSSSAFYGGYDMLMIWYEVMGDDLVYTYSNAQFQKQAQWSSHRNATIGSATHFYRLLQYFISNSSMIIDNIDAAEGLESERNYIKGQAHFYRAFAYFTMVQMYGGRYKAEGDNTQLGVVIRNDNSTEPRARASVEEVYTQINEDIDLAIQLLGATEEKRTNKSHIDLHVARGLKARILLTQGKWLEAAEMAKLVVDLSGAKLQDDTYTTLNDRFSDQSNTEWLWGSNPLLQQAPNLTHFHGYMSNEIISYNGNTPRAIYNKLYDKISDTDVRKGIWFPRATDPNTLPRPIRAECNSKAYANYMANKFIVSDPTTKGGRDVPFMRLPEMMLIMAEGYARAGEPGKAAQALYPLASHRDPEYTLSTKTGENLIEEVMTQRRIELWGEGFRWFDLKRLNMDLDRGPAPRPEVFPNGLIEYWNKDAMPKVVDPEASNYNMYGDGTVTGNGNRYRPAGHRDWQWAIPDKETQLNPLCEPNP	not soluble
MGSDKIHHHHHHGQNQNKIQEAMANYDYETAVELINKEPPTIPLLMQKAKALKGIGSNAEALRSIRQVIAEDSTNQQAHIEAAECCKAMAKYNDALDYYRKAISLNPKNKYARLQFINLLCNTKNYAEAFGESSMMSETDSSAVVLHLQAQSLEGMQQILPAIGCYEVIQDKYPDDYLAAAKLGNLNIVAGYPEYAIQATERYRERDSTNLIVNQQNALAYCHAEQYPTAIKRYEKLCQQGDSSTQTLYYLGVSYYADEYYYEAHACFSKLQKEMEENPNLLYYLGRCCAKTSWKKEGIEHLEKAIELTIPKDSTMIRLYKGLVDCCKLAQDTPKQIQALRELYKYDKTNHKLLYDIAWNYSYQLKDNKSAERYLQAFLKTRKANARKEEPVSEKGELVLGLENYYNAAENWLKDLQKEKFFKEGIPLESQKQ	not soluble
MGSDKIHHHHHHILLDYVESLVLSSVFPKRDFLSPTSNYLNGLKEVLYYQIFPERFANGDPSNDPNGSQSWDVDPAYANLGGDGFFGGDLKGIIDHFDHILELGVEAIYLNPIFESPSSHKYDTEDYLKIDDNFGNDYVFEEFISLAEDSGIKLILDGVFNHTGYDFFAFKDLREREETSPYKDWYFVKRFPIRKIQDRAMTYVGWNGYAYMPKVNSLNEGWQAYVERLVRKYNLEGIGGWRLDVATEVDPLFWSGFFRPLVKSLEKDMILVAEFWGDARSLLRGKTFDSAMNYPFKEAVIEYVFRAGNSAAKFAAMTNLYLNAYPPQTLHSLWNILDSHDTERILTLAFNQVDLLKIAVAIQMTFIGSPVIYYGDEVGMKGGKDPENRAPMLWDEEKWNWEIYDFYKTLIDLRRTHESIKDGEYEVLTAEGPVFSFRRWKDSEEVIVVINPSRENAFFNPEFEGEFCEYLSGRSISFFENKAEITPLTVWILVQED	not soluble
MGSDKIHHHHHHKEQNLDDFEQEYQNYQVNDPLSGYNKAMTSFNVALYDYGLRPVLKGYNAITPEFIRLGARNFFDNLLAPLRFVSNVLQFKFEEAGEEFKRFTANTIMGFGGLMDVASKMGLKKHPADLGTVLAHWGVGSGFHIVLPILGPSNLRDTLTLPATWYASFTAYIDPTWASIAISAYGFGNELSFRLDEIDEIYHNTPNLYPFLRDAYEQRRNELSK	not soluble
MGSDKIHHHHHHKKAVINDSNTPLHLLQPAYQGTYGDLTPEQVKKDIDRVFAYIDKETPARVVDKNTGKVITDYTAMGDEAQLERGAFRLASYEWGVTYSALIAAAETTGDKRYTDYVQNRFRFLAEVAPHFKRVYEEKGKTDSQLLQILTPHALDDAGAVCTAMIKLRLKDESLPVDGLIQNYFDFIINKEYRLADGTFARNRPQRNTLWLDDMFMGIPAVAQMSRYDKEAKNKYLAEAVKQFLQFADRMFIPEKGLYRHGWVESSTDHPAFCWARANGWALLTACELLDVLPEDYPQRPKVMDYFRAHVRGVTALQSGEGFWHQLLDCNDSYLETSATAIYVYCLAHAINKGWIDAIAYGPVAQLGWHAVAGKINEEGQVEGTCVGTGMAFDPAFYYYRPVNVYAAHGYGPVLWAGAEMIRLLNTQHPQMNDSAVQYYQEKQKTTAPIFAVDSE	not soluble
